One block for each molecule: values may come before it.
Assays:
Assay in all cases: cryo-EM structure
[1] = molecular target: human β-tryptase, tetrameric (activated by enterokinase cleavage) (human) (UniProt Q15661)
CD20 = CD20 (UniProt P11836)
cryo-EM structure = molecular target: the molecule itself

stoichiometry N [1]: 4
Molecule: human β-tryptase, tetrameric (activated by enterokinase cleavage) (from UniProt Q15661 31-275) (enzyme)

stoichiometry N (Fab per CD20 dimer) (CD20): 2
Molecule: Rituximab Fab, wild type (human-mouse chimeric)

B1: CD20 (natural protein)
chain: TQSFFMRESKTLGAVQIMNGLFHIALGGLLMIPAGIYAPICVTVWYPLWGGIMYIISGSLLAATEKNSRKCLVKGKMIMNSLSLFAAISGMILSIMDILNIKISHFLKMESLNFIRAHTPYINIYNCEPANPSEKNSPSTQYCYSIQSLFLGILSVMLIFAFFQELVIAGIVENEWKRTCSRPKSNIVLLSAEEKKEQTIEIKEEVVGLTETSSQPKNEEDIEIIPIQEEEEEETETNFPEPPQDQESSPIENDSSP
stoichiometry N (cryo-EM structure): 2

Source: paper PMC12484979 (Nature Communications, 2025)
